{"source": "paper PMC6546054", "about": "(Genes & Development, 2019)", "molecules": {"B1": {"name": "His6IraD (wild type) (natural protein, E. coli K12, UniProt P39375 1-130, looked up)", "chain": "MMRQSLQAVLPEISGNKTSSLRKSVCSDLLTLFNSPHSALPSLLVSGMPEWQVHNPSDKHLQSWYCRQLRSALLFHEPRIAALQVNLKEAYCHTLAISLEIMLYHDDEPLTFDLVWDNGGWRSATLENVS"}, "B2": {"name": "RssB^D104N (natural protein, E. coli K12, UniProt P0AEV1 1-337, looked up)", "chain": "MTQPLVGKQILIVEDEQVFRSLLDSWFSSLGATTVLAADGVDALELLGGFTPDLMICDIAMPRMNGLKLLEHIRNRGDQTPVLVISATENMADIAKALRLGVENVLLKPVKDLNRLREMVFACLYPSMFNSRVEEEERLFRDWDAMVDNPAAAAKLLQELQPPVQQVISHCRVNYRQLVAADKPGLVLDIAALSENDLAFYCLDVTRAGHNGVLAALLLRALFNGLLQEQLAHQNQRLPELGALLKQVNHLLRQANLPGQFPLLVGYYHRELKNLILVSAGLNATLNTGEHQVQISNGVPLGTLGNAYLNQLSQRCDAWQCQIWGTGGRLRLMLSAE"}, "B3": {"name": "RssB^CC (natural protein, E. coli K12, UniProt P0AEV1 1-337, looked up)", "chain": "B2 chain with S29C, N104D, E229C"}}, "key": {"[1]": {"target": "RssB (wild type) (E. coli K12) (UniProt P0AEV1)", "experiment": "cross-linking"}, "[2]": {"target": "T1, RssB^R115A (E. coli K12, UniProt P0AEV1 1-337, R115A)", "T1 sequence (looked up)": "B2 chain with N104D, R115A", "experiment": "pull-down"}, "[3]": {"target": "T2, RssB^(Q254A N256A) (E. coli K12, UniProt P0AEV1 1-337, Q254A | N256A)", "T2 sequence (looked up)": "B2 chain with N104D, Q254A, N256A", "experiment": "pull-down"}, "[4]": {"target": "T3, RssB^AAA (E. coli K12, UniProt P0AEV1 1-337, E134-E137 to EAAA)", "T3 sequence (looked up)": "B2 chain with N104D, E135A, E136A, E137A", "experiment": "pull-down"}, "[5]": {"target": "T4, RssB (wild type) (E. coli K12, UniProt P0AEV1 1-337)", "T4 sequence (looked up)": "B2 chain with N104D", "experiment": "pull-down"}, "[6]": {"target": "B1", "experiment": "pull-down"}, "[7]": {"target": "the molecule itself", "experiment": "cross-linking"}}, "note": "Numbering of substitutions follows the chain as printed. Names and notes keep the numbering of the source.", "data": [{"molecule": "RssB (wild type) (from UniProt P0AEV1 1-337) (natural protein)", "values": [{"measurement": "stoichiometry N", "setting": "[1]", "value": 2}]}, {"molecule": "B1", "values": [{"measurement": "binding result", "setting": "[2]", "value": "binds"}, {"measurement": "binding result", "setting": "[3]", "value": "binds"}, {"measurement": "binding result", "setting": "[4]", "value": "binds"}, {"measurement": "binding result", "setting": "[5]", "value": "binds"}]}, {"molecule": "B2", "values": [{"measurement": "binding relative to wild type", "setting": "[6]", "value": "18 ± 3", "unit": "%"}]}, {"molecule": "B3", "values": [{"measurement": "stoichiometry N", "setting": "[7]", "value": 2}]}]}
